Test results reported in publication PMC5932559, “Defective mitochondrial protease LonP1 can cause classical mitochondrial disease” (Human Molecular Genetics, 2018).

B3: p.(Glu733Lys) LonP1 mutant lacking the mitochondrial targeting sequence, C-terminal 6xHis (enzyme, human, UniProt P36776-1 115-959, looked up)
chain: MTIPDVFPHLPLIAITRNPVFPRFIKIIEVKNKKLVELLRRKVRLAQPYVGVFLKRDDSNESDVVESLDEIYHTGTFAQIHEMQDLGDKLRMIVMGHRRVHISRQLEVEPEEPEAENKHKPRRKSKRGKKEAEDELSARHPAELAMEPTPELPAEVLMVEVENVVHEDFQVTEEVKALTAEIVKTIRDIIALNPLYRESVLQMMQAGQRVVDNPIYLSDMGAALTGAESHELQDVLEETNIPKRLYKALSLLKKEFELSKLQQRLGREVEEKIKQTHRKYLLQEQLKIIKKELGLEKDDKDAIEEKFRERLKELVVPKHVMDVVDEELSKLGLLDNHSSEFNVTRNYLDWLTSIPWGKYSNENLDLARAQAVLEEDHYGMEDVKKRILEFIAVSQLRGSTQGKILCFYGPPGVGKTSIARSIARALNREYFRFSVGGMTDVAEIKGHRRTYVGAMPGKIIQCLKKTKTENPLILIDEVDKIGRGYQGDPSSALLELLDPEQNANFLDHYLDVPVDLSKVLFICTANVTDTIPEPLRDRMEMINVSGYVAQEKLAIAERYLVPQARALCGLDESKAKLSSDVLTLLIKQYCRESGVRNLQKQVEKVLRKSAYKIVSGEAKSVEVTPENLQDFVGKPVFTVERMYDVTPPGVVMGLAWTAMGGSTLFVETSLRRPQDKDAKGDKDGSLEVTGQLGEVMKESARIAYTFARAFLMQHAPANDYLVTSHIHLHVPEGATPKDGPSAGCTIVTALLSLAMGRPVRQNLAMTGEVSLTGKILPVGGIKEKTIAAKRAGVTCIVLPAENKKDFYDLAAFITEGLEVHFVEHYREIFDIAFPDEQAEALAVER
notes: A variant found in a patient and in ExAC; also called E733K; hGlu733Lys

Columns and labels:
TFAM = target: T1, TFAM (UniProt Q00059 43-246, NT-547-maleimide dye on cysteine (for microscale thermophoresis)); experiment: MST; 4 mM AMP-PNP
T1 chain: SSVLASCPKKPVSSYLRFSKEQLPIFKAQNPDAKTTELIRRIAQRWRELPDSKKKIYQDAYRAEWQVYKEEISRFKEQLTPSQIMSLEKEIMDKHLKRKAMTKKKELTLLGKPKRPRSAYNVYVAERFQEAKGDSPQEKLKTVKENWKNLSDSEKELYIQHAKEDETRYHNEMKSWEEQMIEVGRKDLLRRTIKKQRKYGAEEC

[1] = target: the molecule itself; experiment: SEC; Superose 6 Increase 10/300; 20 mM Tris-HCl pH 8.0, 10% glycerol, 2 mM DTT, 50 mM NaCl, 10 mM MgCl2, samples incubated 10 min at 37°C with ATP (1 mM in the methods, 4 mM in the legend); fractions on SDS-PAGE, size calibration curve; in 1 M NaCl without ATP higher-order oligomers were largely prevented
[2] = target: T2, 1:1 mixture of wild-type and p.(Glu733Lys) LonP1, oligomerised by dialysis from high salt (human, UniProt P36776-1 115-959; P36776-1 115-959, p.(Glu733Lys)); experiment: MST; as a3, with 4 mM AMP-PNP; LonP1 forms or 1:1 mixtures titrated (2.3-4650 nM) against labelled TFAM; 24°C; conditions: both partners purified
T2 construct: as the chain of m1; as the chain of m3; The make-up of the oligomers (heterohexamers or separate homohexamers) was not determined; also called WT/E733K; WT + E733K; source: equimolar purified LonP1 forms mixed in high salt, oligomerised by dialysis

[3] = target: T3, 1:1 mixture of wild-type and p.(Tyr565His) LonP1, oligomerised by dialysis from high salt (human, UniProt P36776-1 115-959; P36776-1 115-959, p.(Tyr565His)); experiment: as above; conditions: both partners purified
T3 construct: as the chain of m1; as the chain of m2; also called WT/Y565H; WT + Y565H; source: equimolar purified LonP1 forms mixed in high salt, oligomerised by dialysis

[4] = target: T4, wild-type LonP1 lacking the mitochondrial targeting sequence, C-terminal 6xHis (human, UniProt P36776-1 115-959); experiment: MST; TFAM labelled with NT-547-maleimide, unlabelled LonP1 titrated (2.3-4650 nM); MST buffer (50 mM Tris-HCl pH 8.0, 10 mM MgCl2, 10% glycerol) without nucleotide; 24°C; Monolith NT.115; conditions: both partners purified
T4 construct: called the mature protein; Hexamer at low salt with ATP, mostly monomer in 1 M NaCl without ATP; also called WT; LonP1 wild-type; source: pET-20b, induced with 1 mM IPTG, purified (His-Select nickel, HiTrap Heparin, MonoQ, Superdex 200)
T4 sequence (looked up): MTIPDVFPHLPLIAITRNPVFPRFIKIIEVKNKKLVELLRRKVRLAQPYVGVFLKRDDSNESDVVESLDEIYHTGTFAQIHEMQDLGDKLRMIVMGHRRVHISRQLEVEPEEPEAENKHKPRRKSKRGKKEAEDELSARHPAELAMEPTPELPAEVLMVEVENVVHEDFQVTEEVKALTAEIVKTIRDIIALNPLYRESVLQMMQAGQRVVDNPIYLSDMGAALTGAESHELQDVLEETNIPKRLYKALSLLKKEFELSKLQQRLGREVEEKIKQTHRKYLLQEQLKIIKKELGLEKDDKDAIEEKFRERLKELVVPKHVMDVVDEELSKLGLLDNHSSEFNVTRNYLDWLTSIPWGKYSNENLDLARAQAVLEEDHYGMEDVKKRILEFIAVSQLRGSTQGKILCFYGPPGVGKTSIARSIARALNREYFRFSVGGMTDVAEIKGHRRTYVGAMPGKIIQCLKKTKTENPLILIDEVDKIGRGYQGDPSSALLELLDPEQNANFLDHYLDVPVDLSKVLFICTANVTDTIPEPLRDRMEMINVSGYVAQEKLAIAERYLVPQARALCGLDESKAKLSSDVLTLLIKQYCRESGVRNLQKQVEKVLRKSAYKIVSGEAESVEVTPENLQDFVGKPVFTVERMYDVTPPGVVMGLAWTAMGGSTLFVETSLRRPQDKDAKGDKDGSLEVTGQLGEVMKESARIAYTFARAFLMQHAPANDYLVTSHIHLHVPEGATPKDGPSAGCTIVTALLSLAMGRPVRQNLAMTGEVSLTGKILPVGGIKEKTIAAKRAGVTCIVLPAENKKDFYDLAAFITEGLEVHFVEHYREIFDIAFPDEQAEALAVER

[5] = target: B3; experiment: as above; conditions: both partners purified

B1: wild-type LonP1 lacking the mitochondrial targeting sequence, C-terminal 6xHis (enzyme)
chain: MTIPDVFPHLPLIAITRNPVFPRFIKIIEVKNKKLVELLRRKVRLAQPYVGVFLKRDDSNESDVVESLDEIYHTGTFAQIHEMQDLGDKLRMIVMGHRRVHISRQLEVEPEEPEAENKHKPRRKSKRGKKEAEDELSARHPAELAMEPTPELPAEVLMVEVENVVHEDFQVTEEVKALTAEIVKTIRDIIALNPLYRESVLQMMQAGQRVVDNPIYLSDMGAALTGAESHELQDVLEETNIPKRLYKALSLLKKEFELSKLQQRLGREVEEKIKQTHRKYLLQEQLKIIKKELGLEKDDKDAIEEKFRERLKELVVPKHVMDVVDEELSKLGLLDNHSSEFNVTRNYLDWLTSIPWGKYSNENLDLARAQAVLEEDHYGMEDVKKRILEFIAVSQLRGSTQGKILCFYGPPGVGKTSIARSIARALNREYFRFSVGGMTDVAEIKGHRRTYVGAMPGKIIQCLKKTKTENPLILIDEVDKIGRGYQGDPSSALLELLDPEQNANFLDHYLDVPVDLSKVLFICTANVTDTIPEPLRDRMEMINVSGYVAQEKLAIAERYLVPQARALCGLDESKAKLSSDVLTLLIKQYCRESGVRNLQKQVEKVLRKSAYKIVSGEAESVEVTPENLQDFVGKPVFTVERMYDVTPPGVVMGLAWTAMGGSTLFVETSLRRPQDKDAKGDKDGSLEVTGQLGEVMKESARIAYTFARAFLMQHAPANDYLVTSHIHLHVPEGATPKDGPSAGCTIVTALLSLAMGRPVRQNLAMTGEVSLTGKILPVGGIKEKTIAAKRAGVTCIVLPAENKKDFYDLAAFITEGLEVHFVEHYREIFDIAFPDEQAEALAVER
- Kd (TFAM): 2200 nM

B2: p.(Tyr565His) LonP1 mutant lacking the mitochondrial targeting sequence, C-terminal 6xHis (enzyme, human, UniProt P36776-1 115-959, looked up)
chain: MTIPDVFPHLPLIAITRNPVFPRFIKIIEVKNKKLVELLRRKVRLAQPYVGVFLKRDDSNESDVVESLDEIYHTGTFAQIHEMQDLGDKLRMIVMGHRRVHISRQLEVEPEEPEAENKHKPRRKSKRGKKEAEDELSARHPAELAMEPTPELPAEVLMVEVENVVHEDFQVTEEVKALTAEIVKTIRDIIALNPLYRESVLQMMQAGQRVVDNPIYLSDMGAALTGAESHELQDVLEETNIPKRLYKALSLLKKEFELSKLQQRLGREVEEKIKQTHRKYLLQEQLKIIKKELGLEKDDKDAIEEKFRERLKELVVPKHVMDVVDEELSKLGLLDNHSSEFNVTRNYLDWLTSIPWGKYSNENLDLARAQAVLEEDHYGMEDVKKRILEFIAVSQLRGSTQGKILCFYGPPGVGKTSIARSIARALNREYFRFSVGGMTDVAEIKGHRRTHVGAMPGKIIQCLKKTKTENPLILIDEVDKIGRGYQGDPSSALLELLDPEQNANFLDHYLDVPVDLSKVLFICTANVTDTIPEPLRDRMEMINVSGYVAQEKLAIAERYLVPQARALCGLDESKAKLSSDVLTLLIKQYCRESGVRNLQKQVEKVLRKSAYKIVSGEAESVEVTPENLQDFVGKPVFTVERMYDVTPPGVVMGLAWTAMGGSTLFVETSLRRPQDKDAKGDKDGSLEVTGQLGEVMKESARIAYTFARAFLMQHAPANDYLVTSHIHLHVPEGATPKDGPSAGCTIVTALLSLAMGRPVRQNLAMTGEVSLTGKILPVGGIKEKTIAAKRAGVTCIVLPAENKKDFYDLAAFITEGLEVHFVEHYREIFDIAFPDEQAEALAVER
notes: A variant found in a patient and in ExAC; also called Y565H; hTyr565His
- stoichiometry N [1]: 6

Binder: B3
- stoichiometry N [1]: 6

B4: TFAM (natural protein, UniProt Q00059 43-246, looked up)
chain: SSVLASCPKKPVSSYLRFSKEQLPIFKAQNPDAKTTELIRRIAQRWRELPDSKKKIYQDAYRAEWQVYKEEISRFKEQLTPSQIMSLEKEIMDKHLKRKAMTKKKELTLLGKPKRPRSAYNVYVAERFQEAKGDSPQEKLKTVKENWKNLSDSEKELYIQHAKEDETRYHNEMKSWEEQMIEVGRKDLLRRTIKKQRKYGAEEC
modifications: NT-547-maleimide dye on cysteine (for microscale thermophoresis)
notes: TFAM, the mitochondrial transcription and mtDNA packaging factor and a LonP1 substrate; recombinant; It was unlabelled in the proteolysis assays; also called TFAM substrate
- Kd [2]: 2170 nM
- Kd [3]: 3220 nM
- Kd [4]: 1360 nM
- Kd [5]: 1520 nM
